The record followed here is patent publication US7351690B2, “Knockout identification of target-specific sites in peptides” (priority 2000, dated 2008).

Square brackets hold non-standard residues; d marks the D form. Ends that are not written are not given here. Nle = CCCC[C@H](N)C(=O)O

The term % Inhibition denotes the share of the control response that was lost under treatment. A low value points to a weak effect.

Assay [1] addresses T1, hMC3-R (Homo sapiens, UniProt P41968).
T1 construct: expressed in transfected cells
Description: competitive inhibition binding assay, 125I-NDP-alpha-MSH, hMC3-R membranes. The following applies: 1 μM test peptide; 0.4 nM 125I-NDP-alpha-MSH; hMC3-R membranes. Here is the method:
(§1) The competitive inhibition binding assay was conducted using membranes prepared from hMC3-R, hMC4-R, hMC5-R, and B-16 mouse melanoma cells (containing MC1-R) using 0.4 nM ^125I-NDP-alpha-MSH (New England Nuclear, Boston, Mass., USA) in 50 mM HEPES buffer containing 1 mM MgCl2, 2 mM CaCl2, and 5 mM KCl, at pH 7.2. The assay tube also contained a chosen concentration of the test peptide of this invention complexed to a rhenium metal ion, typically at a 1 μM concentration, for determining its efficacy in inhibiting the binding of ^125I-NDP-alpha-MSH to its receptor. Non-specific binding was measured by complete inhibition of binding of ^125I-NDP-alpha-MSH in the assay with the presence of 1 μM alpha-MSH. Incubation was for 90 minutes at room temperature, after which the assay mixture was filtered and the membranes washed three times with ice cold buffer. The filter was dried and counted in a gamma counter for remaining radioactivity bound to the membranes. 100% specific binding was defined as the difference in radioactivity (cpm) bound to cell membranes in the absence and presence of 1 μM alpha-MSH. The cpm obtained in presence of test compounds were normalized with respect to 100% specific binding to determine the percent inhibition of ^125I-NDP-alpha MSH binding. Each assay was conducted in triplicate and the actual mean valves are described.

The target of assay [2] is T2, hMC4-R (Homo sapiens, UniProt P32245).
T2 construct: expressed in transfected cells
T2 sequence (P32245 whole entry): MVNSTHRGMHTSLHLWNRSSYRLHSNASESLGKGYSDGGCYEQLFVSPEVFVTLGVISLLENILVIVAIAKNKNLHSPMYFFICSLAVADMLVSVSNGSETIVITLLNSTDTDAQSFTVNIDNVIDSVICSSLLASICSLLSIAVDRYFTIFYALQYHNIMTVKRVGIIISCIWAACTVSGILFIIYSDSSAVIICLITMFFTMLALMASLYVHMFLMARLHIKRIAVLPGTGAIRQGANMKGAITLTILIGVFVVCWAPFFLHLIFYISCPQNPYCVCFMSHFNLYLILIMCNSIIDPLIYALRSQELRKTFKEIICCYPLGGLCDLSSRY
Put plainly: competitive inhibition binding assay, 125I-NDP-alpha-MSH, hMC4-R membranes. The following applies: 1 μM test peptide; 0.4 nM 125I-NDP-alpha-MSH; hMC4-R membranes. The procedure: as §1

Assay [3] deals with T3, MC1-R (Mus musculus, UniProt Q01727).
T3 construct: membranes prepared from hMC3-R, hMC4-R, hMC5-R, and B-16 mouse melanoma cells (containing MC1-R); endogenous in cells; host or cells: B-16 mouse melanoma cells (membranes)
T3 sequence (Q01727 whole entry): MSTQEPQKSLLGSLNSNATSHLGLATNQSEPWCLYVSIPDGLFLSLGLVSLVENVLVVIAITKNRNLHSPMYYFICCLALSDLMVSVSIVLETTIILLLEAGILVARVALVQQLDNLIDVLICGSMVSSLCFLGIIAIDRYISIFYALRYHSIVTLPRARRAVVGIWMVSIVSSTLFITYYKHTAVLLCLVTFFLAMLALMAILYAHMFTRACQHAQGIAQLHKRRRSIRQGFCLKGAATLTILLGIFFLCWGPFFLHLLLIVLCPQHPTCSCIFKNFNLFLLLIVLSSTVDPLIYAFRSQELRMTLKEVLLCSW
Put plainly: competitive inhibition binding assay, 125I-NDP-alpha-MSH, B-16 mouse melanoma cell membranes. The following applies: 1 μM test peptide; 0.4 nM 125I-NDP-alpha-MSH; B-16 mouse melanoma cell membranes. The procedure: as §1

Assay [4] addresses T4, hMC5-R (Homo sapiens, UniProt P33032).
T4 construct: expressed in transfected cells
Put plainly: competitive inhibition binding assay, 125I-NDP-alpha-MSH, hMC5-R membranes. The following applies: 1 μM test peptide; 0.4 nM 125I-NDP-alpha-MSH; hMC5-R membranes. The procedure: as §1

T4 sequence (P33032 whole entry): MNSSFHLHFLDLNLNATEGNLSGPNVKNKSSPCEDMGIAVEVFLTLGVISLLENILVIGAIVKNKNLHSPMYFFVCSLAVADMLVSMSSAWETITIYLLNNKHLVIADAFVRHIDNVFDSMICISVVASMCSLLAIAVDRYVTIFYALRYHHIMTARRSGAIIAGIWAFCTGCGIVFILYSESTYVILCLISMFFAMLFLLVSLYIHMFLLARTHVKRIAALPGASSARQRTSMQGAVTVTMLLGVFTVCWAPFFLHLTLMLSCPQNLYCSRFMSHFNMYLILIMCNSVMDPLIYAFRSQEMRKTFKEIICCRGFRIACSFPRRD
T1 sequence (P41968 whole entry): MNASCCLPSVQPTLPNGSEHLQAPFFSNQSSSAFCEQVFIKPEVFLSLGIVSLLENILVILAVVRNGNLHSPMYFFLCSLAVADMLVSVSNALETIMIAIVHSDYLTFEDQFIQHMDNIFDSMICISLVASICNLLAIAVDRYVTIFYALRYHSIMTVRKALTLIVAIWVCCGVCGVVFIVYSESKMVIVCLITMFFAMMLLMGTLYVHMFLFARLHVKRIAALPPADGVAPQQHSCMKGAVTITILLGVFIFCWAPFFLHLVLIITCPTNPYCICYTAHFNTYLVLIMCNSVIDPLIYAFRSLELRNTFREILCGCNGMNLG

Regarding “Ac-Ser-Tyr-D-Cys-Ser-Nle-Glu-His-Phe-Arg-Trp-Gly-Lys-Pro-Val-NH2 (Ac-SY[dC]S[Nle]EHFRWGKPV-NH2; not fully specified (bridges); printed as Ac-Ser-Tyr-D-Cys-Ser-Nle-Glu-His-Phe-Arg-Trp-Gly-Lys-Pro-Val-NH2; numbers in words are those of the source; also: oxorhenium(V) N3S1 chelate (Re(V)=O)) [2-12]”, the “% Inhibition at 1 μM at Melanocortin Receptor 3” value in assay [1] is 21%. For the same substance, in assay [2], the “% Inhibition at 1 μM at Melanocortin Receptor 4” value came to 47%. Further, the “% Inhibition at 1 μM at Melanocortin Receptor 1” value in assay [3] is reported as 97%. The “% Inhibition at 1 μM at Melanocortin Receptor 5” value in assay [4] came out at 17%.

As to “Ac-Ser-Tyr-Ser-Nle-Glu-His-Phe-Arg-Trp-Gly-Lys-D-Cys-Pro-Val-NH2 (Ac-SYS[Nle]EHFRWGK[dC]PV-NH2; not fully specified (bridges); printed as Ac-Ser-Tyr-Ser-Nle-Glu-His-Phe-Arg-Trp-Gly-Lys-D-Cys-Pro-Val-NH2; numbers in words are those of the source; also: oxorhenium(V) N3S1 chelate (Re(V)=O)) [2-3]”, the “% Inhibition at 1 μM at Melanocortin Receptor 3” value in assay [1] turned out to be 41%. The “% Inhibition at 1 μM at Melanocortin Receptor 4” value in assay [2] worked out at 25%. For the same substance, the “% Inhibition at 1 μM at Melanocortin Receptor 1” value in assay [3] was determined as 91%. Further, the “% Inhibition at 1 μM at Melanocortin Receptor 5” value in assay [4] is given as 38%.

Turning to “Tyr-Val-Nle-Gly-His-D-Phe-Arg-Cys-Asp-Arg-Phe-NH2 (YV[Nle]GH[dF]RCDRF-NH2; numbers in words are those of the source; also: oxorhenium(V) N3S1 chelate complex (Re=O)) [5-4]”, in assay [1], the “% Inhibition at 1 μM at Melanocortin Receptor 3” value was 11%. In addition, the “% Inhibition at 1 μM at Melanocortin Receptor 4” value in assay [2] worked out at 18%. Also, in assay [3], the “% Inhibition at 1 μM at Melanocortin Receptor 1” value is 86%. Further, the “% Inhibition at 1 μM at Melanocortin Receptor 5” value in assay [4] turned out to be 58%.

In the case of “Tyr-Val-Nle-Gly-His-D-Phe-Cys-Trp-Asp-Arg-Phe-NH2 (YV[Nle]GH[dF]CWDRF-NH2; numbers in words are those of the source; also: oxorhenium(V) N3S1 chelate complex (Re=O)) [5-5]”, in assay [1], the “% Inhibition at 1 μM at Melanocortin Receptor 3” value is on record as 15%. The “% Inhibition at 1 μM at Melanocortin Receptor 4” value in assay [2] is recorded as 26%. For the same substance, the “% Inhibition at 1 μM at Melanocortin Receptor 1” value in assay [3] was determined as 67%. Moreover, the “% Inhibition at 1 μM at Melanocortin Receptor 5” value in assay [4] came out at 28%.

As to “Ac-Ser-Tyr-Cys-Ser-Nle-Glu-His-Phe-Arg-Trp-Gly-Lys-Pro-Val-NH2 (chain 1 Ac-SYCS[Nle]; chain 2 EHFRWGKPV-NH2; not fully specified (bridges); printed as Ac-Ser-Tyr-Cys-Ser-Nle-Glu-His-Phe-Arg-Trp-Gly-Lys-Pro-Val-NH2; also: oxorhenium(V) N3S1 chelate (Re(V)=O)) [1-12]”, in assay [1], the “% Inhibition at 1 μM at Melanocortin Receptor 3” value came to 15%. In assay [2], the “% Inhibition at 1 μM at Melanocortin Receptor 4” value was determined as 26%. Further, in assay [3], the “% Inhibition at 1 μM at Melanocortin Receptor 1” value amounted to 96%. In addition, the “% Inhibition at 1 μM at Melanocortin Receptor 5” value in assay [4] was determined as 19%.

“Tyr-Val-Nle-Gly-His-D-Phe-Arg-Cys-Trp-Asp-Arg-Phe-NH2 (YV[Nle]GH[dF]RCWDRF-NH2; also: Re complex) [3-5]”: the “% Inhibition at 1 μM at Melanocortin Receptor 3” value in assay [1] was found to be 45%. Further, the “% Inhibition at 1 μM at Melanocortin Receptor 4” value in assay [2] is given as 33%. Further, the “% Inhibition at 1 μM at Melanocortin Receptor 1” value in assay [3] is recorded as 83%. Moreover, the “% Inhibition at 1 μM at Melanocortin Receptor 5” value in assay [4] was determined as 81%.

Consider YVCGH[dF]RWDRF-NH2 [5-9], for which the “% Inhibition at 1 μM at Melanocortin Receptor 3” value in assay [1] worked out at 53%. For the same substance, the “% Inhibition at 1 μM at Melanocortin Receptor 4” value in assay [2] stood at 66%. Moreover, the “% Inhibition at 1 μM at Melanocortin Receptor 1” value in assay [3] is on record as 89%. In addition, the “% Inhibition at 1 μM at Melanocortin Receptor 5” value in assay [4] came out at 53%.

As to “Ac-Ser-Tyr-Ser-Nle-Glu-His-Phe-D-Cys-Arg-Trp-Gly-Lys-Pro-Val-NH2 ({Ac-Ser-Tyr-Ser-Nle-Glu-H2N}-F[dC]RWGKPV-NH2; numbers in words are those of the source; also: oxorhenium(V) N3S1 chelate via Cys (Re(V)=O)) [2-7]”, the “% Inhibition at 1 μM at Melanocortin Receptor 3” value in assay [1] is listed as 0%. Besides, the “% Inhibition at 1 μM at Melanocortin Receptor 4” value in assay [2] was 6%. Further, the “% Inhibition at 1 μM at Melanocortin Receptor 1” value in assay [3] is given as 54%. In addition, the “% Inhibition at 1 μM at Melanocortin Receptor 5” value in assay [4] worked out at 0%.

“Ac-Ser-Tyr-Ser-Nle-Glu-D-Cys-His-Phe-Arg-Trp-Gly-Lys-Pro-Val-NH2 (Ac-SYS[Nle]E[dC]HFRWGKPV-NH2; numbers in words are those of the source; also: oxorhenium(V) N3S1 chelate via Cys (Re(V)=O)) [2-9]”: the “% Inhibition at 1 μM at Melanocortin Receptor 3” value in assay [1] is on record as 13%. The “% Inhibition at 1 μM at Melanocortin Receptor 4” value in assay [2] amounted to 35%. The “% Inhibition at 1 μM at Melanocortin Receptor 1” value in assay [3] was 92%. Further, the “% Inhibition at 1 μM at Melanocortin Receptor 5” value in assay [4] stood at 2%.

With “Ac-Ser-Tyr-Ser-Nle-Glu-His-Phe-Arg-Trp-Gly-Lys-Gly-Val-D-Cys-NH2 (EHFRWGKGV; not fully specified; Ac-Ser-Tyr-Ser-Nle N-term; D-Cys; amide; printed: Glu-His-Phe-Arg-Trp-Gly-Lys-Gly-Val-) [2-1]”, the “% Inhibition at 1 μM at Melanocortin Receptor 3” value in assay [1] came to 72%. Further, the “% Inhibition at 1 μM at Melanocortin Receptor 4” value in assay [2] was 46%. The “% Inhibition at 1 μM at Melanocortin Receptor 1” value in assay [3] is 97%. Moreover, in assay [4], the “% Inhibition at 1 μM at Melanocortin Receptor 5” value was 53%.

Take “Ac-Ser-Tyr-Ser-Nle-D-Cys-Glu-His-Phe-Arg-Trp-Gly-Lys-Pro-Val-NH2 (Ac-SYS[Nle][dC]EHFRWGKPV-NH2; numbers in words are those of the source; also: oxorhenium(V) N3S1 chelate via Cys (Re(V)=O)) [2-10]”: in assay [1], the “% Inhibition at 1 μM at Melanocortin Receptor 3” value came to 0%. The “% Inhibition at 1 μM at Melanocortin Receptor 4” value in assay [2] is given as 18%. Besides, the “% Inhibition at 1 μM at Melanocortin Receptor 1” value in assay [3] was 65%. Besides, in assay [4], the “% Inhibition at 1 μM at Melanocortin Receptor 5” value was 0%.

Consider “Tyr-Val-Nle-Gly-His-Cys-Arg-Trp-Asp-Arg-Phe-NH2 (YV[Nle]GHCRWDRF-NH2; numbers in words are those of the source; also: oxorhenium(V) N3S1 chelate (Re=O) with Cys) [5-6]”, for which the “% Inhibition at 1 μM at Melanocortin Receptor 3” value in assay [1] came to 26%. The “% Inhibition at 1 μM at Melanocortin Receptor 4” value in assay [2] was 4%. Moreover, the “% Inhibition at 1 μM at Melanocortin Receptor 1” value in assay [3] came to 74%. Besides, the “% Inhibition at 1 μM at Melanocortin Receptor 5” value in assay [4] is 21%.

In the case of “Tyr-Val-Nle-Gly-His-D-Phe-Arg-Trp-Asp-Cys-Arg-Phe-NH2 (YV[Nle]GH[dF]RWDCRF-NH2; also: Re complex) [3-3]”, in assay [1], the “% Inhibition at 1 μM at Melanocortin Receptor 3” value was found to be 95%. In assay [2], the “% Inhibition at 1 μM at Melanocortin Receptor 4” value came out at 99%. For the same substance, in assay [3], the “% Inhibition at 1 μM at Melanocortin Receptor 1” value was determined as 99%. The “% Inhibition at 1 μM at Melanocortin Receptor 5” value in assay [4] was determined as 99%.

As for “Ac-Ser-Tyr-Ser-Nle-Glu-Cys-His-Phe-Arg-Trp-Gly-Lys-Pro-Val-NH2 (Ac-SYS[Nle]ECHFRWGKPV-NH2; not fully specified (bridges); printed as Ac-Ser-Tyr-Ser-Nle-Glu-Cys-His-Phe-Arg-Trp-Gly-Lys-Pro-Val-NH2; numbers in words are those of the source; also: oxorhenium(V) N3S1 chelate (Re(V)=O)) [1-9]”, the “% Inhibition at 1 μM at Melanocortin Receptor 3” value in assay [1] came to 0%. For the same substance, the “% Inhibition at 1 μM at Melanocortin Receptor 4” value in assay [2] came out at 3%. Further, the “% Inhibition at 1 μM at Melanocortin Receptor 1” value in assay [3] stood at 74%. The “% Inhibition at 1 μM at Melanocortin Receptor 5” value in assay [4] is listed as 6%.
